How the values were obtained:
[1] = tested on: H292-HGF human lung cancer xenograft; test: Efficacy of bispecific molecule and other inhibitors in subcutaneous H292-HGF xenograft model; type: in vivo, SCID/Beige mice
Method: The H292-HGF cells were maintained in vitro in RPMI1640 medium supplemented with fetal bovine serum (10% v/v), and L-glutamine (2 mM) at 37° C. in an atmosphere of 5% CO2 in air. The cells were routinely subcultured twice weekly by trypsin-EDTA treatment. The cells growing in an exponential growth phase were harvested and counted for tumor inoculation.
Each mouse was inoculated subcutaneously at the right flank region with H292-HGF tumor cells (2×10^6) in 0.1 ml of PBS with cultrex (1:1) for tumor development. The treatments were started when the mean tumor size reached 139 mm^3. […] The date of tumor cell inoculation was denoted as day 0.
Before commencement of treatment, all animals were weighed and the tumor volumes were measured. Since the tumor volume can affect the effectiveness of any given treatment, mice were assigned into groups using randomized block design based upon their tumor volumes. […] The randomized block design was used to assign experimental animals to groups. First, the experimental animals were divided into homogeneous blocks according to their initial tumor volume. Secondly, within each block, randomization of experimental animals to treatments was conducted.
The major endpoint was whether tumor growth can be delayed or tumor bearing mice can be cured. Tumor size was measured twice weekly in two dimensions using a caliper, and the volume was expressed in mm^3 using the formula: V=0.5 a×b^2 where a and b are the long and short diameters of the tumor, respectively. The tumor size was then used for calculations of both T−C and T/C values. T−C was calculated with T as the time (in days) required for the mean tumor size of the treatment group to reach 1000 mm^3, and C was the time (in days) for the mean tumor size of the control group to reach the same size. The T/C value (in percent) was an indication of antitumor efficacy; T and C were the mean volume of the treated and control groups, respectively, on a given day. Complete tumor regression (CR) is defined as tumors that are reduced to below the limit of palpation (62.5 mm^3). Partial tumor regression (PR) is defined as tumors that are reduced from initial tumor volume. A minimum duration of CR or PR in 3 or more successive tumor measurements is required for a CP or PR to be considered durable.
Statistical analyses of difference in tumor volume among the groups were evaluated using a one-way ANOVA followed by individual comparisons using Games-Howell (equal variance not assumed). All data were analyzed using SPSS 18.0. p<0.05 was considered to be statistically significant.

[2] = Body weight and tolerability in the H292-HGF xenograft study; settings: doses as in E46
Method: At the time of routine monitoring, the animals were checked for any effects of tumor growth and treatments on normal behavior, such as mobility, visual estimation of food and water consumption, body weight gain/loss (body weights were measured twice weekly), eye/hair matting and any other abnormal effect.
Animals for which the body weight loss exceeded 20%, or for which the mean tumor size of the group exceeds 2000 mm^3 were euthanized. The study was terminated after two weeks of observation after the final dose.

H292 cells = test: Inhibition of proliferation of H292 cells (HGF-induced); type: cell-based, human
From the text: Inhibition of tumor cell proliferation can be measured using standard methods and methods described herein.
It was verified that the enhanced potency for inhibition of EGFR and c-Met phosphorylation with the bispecific EGFR/c-Met molecules translated into an enhanced inhibition of signaling and proliferation. […] The proliferation assay was completed using different combinations EGFR and c-Met binding FN3 domains either as a mixture or linked in a bispecific format. […] This confirmed that the avidity effect observed at the level of the receptors (FIG. 6 and FIG. 7) translates into an improvement in inhibiting cell signaling (Table 17) and cell proliferation (Table 18).
Select EGFR/c-Met molecules were characterized for their affinity to both EGFR and c-Met, their ability to inhibit EGFR and c-Met autophosphorylation, and their effect on proliferation of HGF cells. Binding affinity of the bispecific EGFR/c-Met molecules to recombinant EGFR and/or c-Met extracellular domain was further by surface Plasmon resonance methods using a Proteon Instrument (BioRad) according to protocol described in Example 3.

EGFR [3] = biological target: T1, EGFR (Homo sapiens, UniProt P00533); test: Inhibition of EGFR phosphorylation in NCI-H441 cells; type: cell-based; settings: FIG. 7C
Method: (§1) NCI-H292, NCI-H441, or NCI-H596 cells were plated in 96 well plates in RPMI medium containing 10% FBS. 24 hours later, medium was replaced with serum free RPMI. […] Cells were treated for 1h with the monospecific or bispecific molecules and then stimulated with EGF, HGF, or a combination of EGF and HGF for 15 minutes at 37° C., 5% CO2. Cells were lysed with MSD Lysis Buffer and cell signaling was assessed using appropriate MSD Assay plates, according to manufacturer's instructions, as described above.

EGFR [4] = biological target: T1, EGFR; test: Inhibition of EGFR phosphorylation in NCI-H596 cells; type: cell-based; settings: FIG. 7B
Method: as §1

EGFR [5] = biological target: T1, EGFR; test: Inhibition of EGFR phosphorylation in NCI-H292 cells; type: cell-based; settings: FIG. 7A
Method: as §1
Purified bispecific PEG24-maleimide conjugates were tested for their ability to inhibit EGF-stimulated phosphorylation of EGFR in the human tumor cell line NCI-H292 (American Type Culture Collection, cat. #CRL-1848) using the EGFR phospho(Tyr1173) kit from Meso Scale Discovery (Gaithersburg, Md.) and as described in Example 3.

C[C@@H](Oc1cc(-c2cnn(C3CCNCC3)c2)cnc1N)c1c(Cl)ccc(F)c1Cl [Crizotinib, crizotinib]
Tumor volume (mm^3) ([1]; day 9 after tumor inoculation, mean ± SEM, bispecific 25 mg/kg, Crizotinib 50 mg/kg, Erlotinib 50 mg/kg, Cetuximab 1 mg/mouse): 217 ± 20 mm^3 | Tumor volume (mm^3) ([1]; day 13 after tumor inoculation, mean ± SEM, bispecific 25 mg/kg, Crizotinib 50 mg/kg, Erlotinib 50 mg/kg, Cetuximab 1 mg/mouse): 547 ± 43 mm^3 | Tumor volume (mm^3) ([1]; day 16 after tumor inoculation, mean ± SEM, bispecific 25 mg/kg, Crizotinib 50 mg/kg, Erlotinib 50 mg/kg, Cetuximab 1 mg/mouse): 914 ± 92 mm^3 | Tumor volume (mm^3) ([1]; day 20 after tumor inoculation, mean ± SEM, bispecific 25 mg/kg, Crizotinib 50 mg/kg, Erlotinib 50 mg/kg, Cetuximab 1 mg/mouse): 1438 ± 239 mm^3 | T/C (%) ([1]; day 23, mean volume of treated vs control group, doses as in the Treatment column): 120% | Tumor Size (mm^3) at day 23 ([1]; day 23, mean ± SEM, bispecific 25 mg/kg, Crizotinib 50 mg/kg, Erlotinib 50 mg/kg, combination 50 mg/kg + 50 mg/kg, Cetuximab 1 mg/mouse): 2102 ± 298 mm^3 | mean tumor size ([1]; day 23 after tumor inoculation, ECB38 25 mg/kg, Crizotinib 50 mg/kg, Erlotinib 50 mg/kg, Cetuximab 1 mg/mouse): 2,102 mm^3 | Tumor volume (mm^3) ([1]; day 23 after tumor inoculation, mean ± SEM, bispecific 25 mg/kg, Crizotinib 50 mg/kg, Erlotinib 50 mg/kg, Cetuximab 1 mg/mouse): 2102 ± 298 mm^3 | antitumor activity (in words) ([1]; doses as in E46): no antitumor activity | toxicity / body weight loss / tolerability (in words) [2]: More severe body weight loss

C#Cc1cccc(Nc2ncnc3cc(OCCOC)c(OCCOC)cc23)c1 [Erlotinib, erlotinib]
toxicity / body weight loss / tolerability (in words) [2]: More severe body weight loss

B1: ECB15: bispecific SEQ ID 57: P54AR4-83V2, (AP)5, P114AR7P94-A3 (protein)
chain: MLPAPKNLVVSEVTEDSARLSWDDPWAFYESFLIQYQESEKVGEAIVLTVPGSERSYDLTGLKPGTEYTVSIYGVHNVYKDTNMRGLPLSAIFTTAPAPAPAPAPLPAPKNLVVSRVTEDSARLSWTAPDAAFDSFWIRYFEFLGSGEAIVLTVPGSERSYDLTGLKPGTEYVVNIMGVKGGKISPPLSAIFTT
modifications: bispecific EGFR/cMet binding molecule
IC50 (H292 cells): 23 nM

B2: ECB108: bispecific SEQ ID 67: P54AR4-83V23, (AP)5, P114AR9P122-A7v2 (protein)
chain: MLPAPKNLVVSEVTEDSARLSWDDPHAFYESFLIQYQESEKVGEAIVLTVPGSERSYDLTGLKPGTEYTVSIYGVHNVYKDTNIRGLPLSAIFTTAPAPAPAPAPLPAPKNLVVSRVTEDSARLSWTAPDAAFDSFWIRYFEFVSKGDAIVLTVPGSERSYDLTGLKPGTEYVVNILGVKGGSISPPLSAIFTT
modifications: bispecific EGFR/cMet binding molecule
IC50 (H292 cells): 11400 nM

B3: ECB106: bispecific SEQ ID 65: P54AR4-83V23, (AP)5, P114AR7P94-A3v22 (protein)
chain: MLPAPKNLVVSEVTEDSARLSWDDPHAFYESFLIQYQESEKVGEAIVLTVPGSERSYDLTGLKPGTEYTVSIYGVHNVYKDTNIRGLPLSAIFTTAPAPAPAPAPLPAPKNLVVSRVTEDSARLSWTAPDAAFDSFWIRYFEFLGSGEAIVLTVPGSERSYDLTGLKPGTEYVVNILGVKGGKISPPLSAIFTT
modifications: bispecific EGFR/cMet binding molecule
IC50 (H292 cells): 484 nM

B4: ECB107: bispecific SEQ ID 66: P54AR4-83V23, (AP)5, P114AR9P121-A6v2 (protein)
chain: MLPAPKNLVVSEVTEDSARLSWDDPHAFYESFLIQYQESEKVGEAIVLTVPGSERSYDLTGLKPGTEYTVSIYGVHNVYKDTNIRGLPLSAIFTTAPAPAPAPAPLPAPKNLVVSRVTEDSARLSWTAPDAAFDSFWIRYFEFVGSGEAIVLTVPGSERSYDLTGLKPGTEYVVNILGVKGGSISPPLSAIFTT
modifications: bispecific EGFR/cMet binding molecule
IC50 (H292 cells): 2640 nM

B5: ECB94: bispecific SEQ ID 61: P54AR4-83V22, (AP)5, P114AR7P94-A3v22 (protein)
chain: MLPAPKNLVVSEVTEDSARLSWDDPWAFYESFLIQYQESEKVGEAIVLTVPGSERSYDLTGLKPGTEYTVSIYGVHNVYKDTNIRGLPLSAIFTTAPAPAPAPAPLPAPKNLVVSRVTEDSARLSWTAPDAAFDSFWIRYFEFLGSGEAIVLTVPGSERSYDLTGLKPGTEYVVNILGVKGGKISPPLSAIFTT
modifications: bispecific EGFR/cMet binding molecule
IC50 (H292 cells): 29.6 nM

B6: ECB96: bispecific SEQ ID 63: P54AR4-83V22, (AP)5, P114AR9P122-A7v2 (protein)
chain: MLPAPKNLVVSEVTEDSARLSWDDPWAFYESFLIQYQESEKVGEAIVLTVPGSERSYDLTGLKPGTEYTVSIYGVHNVYKDTNIRGLPLSAIFTTAPAPAPAPAPLPAPKNLVVSRVTEDSARLSWTAPDAAFDSFWIRYFEFVSKGDAIVLTVPGSERSYDLTGLKPGTEYVVNILGVKGGSISPPLSAIFTT
modifications: bispecific EGFR/cMet binding molecule
IC50 (H292 cells): 9480 nM

B7: ECB95: bispecific SEQ ID 62: P54AR4-83V22, (AP)5, P114AR9P121-A6v2 (protein)
chain: MLPAPKNLVVSEVTEDSARLSWDDPWAFYESFLIQYQESEKVGEAIVLTVPGSERSYDLTGLKPGTEYTVSIYGVHNVYKDTNIRGLPLSAIFTTAPAPAPAPAPLPAPKNLVVSRVTEDSARLSWTAPDAAFDSFWIRYFEFVGSGEAIVLTVPGSERSYDLTGLKPGTEYVVNILGVKGGSISPPLSAIFTT
modifications: bispecific EGFR/cMet binding molecule
IC50 (H292 cells): 383 nM

B8: ECB97: bispecific SEQ ID 64: P54AR4-83V22, (AP)5, P114AR7P95-C5V2 (protein)
chain: MLPAPKNLVVSEVTEDSARLSWDDPWAFYESFLIQYQESEKVGEAIVLTVPGSERSYDLTGLKPGTEYTVSIYGVHNVYKDTNIRGLPLSAIFTTAPAPAPAPAPLPAPKNLVVSRVTEDSARLSWTAPDAAFDSFWIRYFEFLGSGEAIVLTVPGSERSYDLTGLKPGTEYVVNILSVKGGSISPPLSAIFTT
modifications: bispecific EGFR/cMet binding molecule
IC50 (H292 cells): 31 nM

B9: ECB109: bispecific SEQ ID 68: P54AR4-83V23, (AP)5, P114AR7P95-C5V2 (protein)
chain: MLPAPKNLVVSEVTEDSARLSWDDPHAFYESFLIQYQESEKVGEAIVLTVPGSERSYDLTGLKPGTEYTVSIYGVHNVYKDTNIRGLPLSAIFTTAPAPAPAPAPLPAPKNLVVSRVTEDSARLSWTAPDAAFDSFWIRYFEFLGSGEAIVLTVPGSERSYDLTGLKPGTEYVVNILSVKGGSISPPLSAIFTT
modifications: bispecific EGFR/cMet binding molecule
IC50 (H292 cells): 574 nM

B10: ECB5: bispecific SEQ ID 54: P53A1R5-17V2, (GGGGS)4, P114AR7P94-A3 (protein)
chain: MLPAPKNLVVSEVTEDSARLSWADPHGFYDSFLIQYQESEKVGEAIVLTVPGSERSYDLTGLKPGTEYTVSIYGVHNVYKDTNMRGLPLSAIFTTGGGGSGGGGSGGGGSGGGGSMLPAPKNLVVSRVTEDSARLSWTAPDAAFDSFWIRYFEFLGSGEAIVLTVPGSERSYDLTGLKPGTEYVVNIMGVKGGKISPPLSAIFTT
modifications: bispecific EGFR/cMet binding molecule
decrease of IC50 for inhibition of EGFR phosphorylation compared to the monospecific EGFR-binding FN3 domain (EGFR [3]): 30 fold | inhibition of phosphorylation of EGFR, bispecific vs monospecific (in words) (EGFR [4]): comparable | inhibition of phosphorylation of EGFR, bispecific vs monospecific (in words) (EGFR [5]): comparable
